Test system: MS2 coat protein
Assay: apparent KD of MS2 coat protein; designed switch direction (-1 OFF switch, 1 ON switch): -1; higher = weaker reporter binding
In short: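 RNA switches sharing common flanks were transcribed by stalled E. coli RNA polymerase on Illumina chips. A doubling series of SNAP-549-labelled MS2 coat protein, from 0.7 or 1.5 nM to 3 µM, was applied in Tris-HCl pH 7.5 buffer with KCl, MgCl2, BSA, DTT, tRNA and Tween-20. Each step lasted 0.8–1.5 h at the bottom of the series and 10–20 min at the top. Normalised cluster fluorescence was curve-fitted, giving apparent KD as the per-design median over clusters.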

[1] = input ligand: microRNA oligo, concentration not stated
[2] = Eterna round: R95, input ligand: FMN 200 uM
[3] = Eterna round: R95, input ligand: microRNA oligo, concentration not stated
[4] = Eterna round: R95, input ligand: none

| Sequence | apparent KD of MS2 coat protein (input ligand: FMN 200 uM) [nM] | apparent KD of MS2 coat protein [1] [nM] | apparent KD of MS2 coat protein (input ligand: none) [nM] | apparent KD of MS2 coat protein [2] [nM] | apparent KD of MS2 coat protein [3] [nM] | apparent KD of MS2 coat protein [4] [nM] |
| --- | --- | --- | --- | --- | --- | --- |
| ACAUGAGGAUCACCCAUGUCAGGCAGGUCCACUCCGGCUGUUGAGGAUAUAGCCCGGUAUCCGCGCUAGAAGGUGAGGGCCGGC [Aenatbe mod 26] (Eterna round: R96, puzzle: Exclusion NG 3) | 15.3 | 15.7 | 21.6 | – | – | – |
| UUUUGUCGUGACAUGGGUGACAUGAGGAUCACCCAUGUUACAAGCUUGUUGCUCGUCUUAUAAUUAACCCAUGUCAC [LRO Sensor-off var1-17 mod of Stov1-13-A1 by Brourd] (Eterna round: R97, puzzle: Sensor, turn-off variant 1) | 17.6 | – | 16.1 | – | – | – |
| AGACUCAUUGUGAGGAUAUCGGGUCAACGAGACUACGAGAAGGCACAUGAGGAUCACCCAUGUAGCCACGGCUA [Eternabot (L2) Solution 95] (Eterna round: R97, puzzle: Brourd's mod of Exclusion 4) | 94.8 | – | 240 | – | – | – |
| CUUGUUUAUGUAGGAUAUGCCUGGCGUGCCUUUGCAGAAGGACAUGAGGAUCACCCAUGUAACAUGAGGCUCACCCAUGUCGCA [salish99_ExNG1_r04_104] (Eterna round: R96, puzzle: Exclusion NG 1) | 376 | 256 | 353 | – | – | – |
| CCACGUCUGCAGGAUAUCAGAUUGUAAGAUCGAUGAGAAGGGCAGACAUGAGGAUCACCCAUGUCCGCCACCAA [EX6 C.10] (Eterna round: R97, puzzle: Exclusion 6) | 20.6 | – | 20.6 | – | – | – |
| AGUACUAUCACGAAAGUGUUAGUACAAUAAGCUUGUGAAACAUGAGGAUCACCCAUGUCCUCAUAAGCUCGUCUUAU [salish99_TOv2_r3_019] (Eterna round: R96, puzzle: Sensor v3, turn-off variant 2) | 15.8 | 467 | 17.8 | – | – | – |
| GGUACUAACACGAUAGUGUUAGUACUAUAAGCUUGUGUUACAUGAGGAUCACCCAUGUCCUCAUAAGCUCGUCUUGU [Mat - Sensor v3 - Turn-off var 2 - D89] (puzzle: Sensor v3, turn-off variant 2) | – | – | – | 49.8 | 52.9 | 44.8 |
| AGUACUAACACGGGUGUGUUAGUACAAUAAGCUUGUGAAACAUGAGGAUCACCCAUGUCCUCAUAAGCUCGUCUUAU [salish99_TOv2_r3_075] (Eterna round: R96, puzzle: Sensor v3, turn-off variant 2) | 15.3 | 503 | 16.6 | – | – | – |
| AUAAAAUAGGAGGAUAUCGUAUCGGAAACGAUACGAGAAGGUCUAACAUGAGGAUCACCCAUGUUCCUCAAUAA [Mat - Exclusion 6 - Eli Mod - D46] (puzzle: Exclusion 6) | – | – | – | 142 | 36.3 | 37.6 |
| UUUGAAUAAGUGAGGAUAUACUGUUAGUAAUGAUUGUAGAAGGUACAUGAGGAUCACCCAUGUUUAUUAUUUAU [JR_BME4_Sub039] (puzzle: Brourd's mod of Exclusion 4) | – | – | – | – | 20.7 | – |
| ACAUGAGGAUCACCCAUGUCUGGCUGGUCCGCUCCGGCUGUUGAGGAUAUAGCUCGGUGUCCGCGCUAGAAGGUGAGGGCUGGC [Aenatbe mod 34] (Eterna round: R96, puzzle: Exclusion NG 3) | 32.4 | 19.5 | 31.9 | – | – | – |
| CAGUACUGAGGAUAUACAUGAGGAUCACCCAUGUGUCUAAAGUAGGAUACUACUAUUAGUAGAAGGCAGUACUG [Fiskers Ex 3 828 mod 20] (puzzle: Exclusion 3) | – | – | – | – | 11.3 | – |
| GUGGGUUACAUGAGGAUCACCCAUGUAUAGUGGGAAGAGAUAUAGGAUAUAAUGUAAAAAUUAUAUUAGAAGGAUAGAGACUAG [AK ExNG3-1.3] (Eterna round: R96, puzzle: Exclusion NG 3) | 344 | 135 | 553 | – | – | – |
| ACUUAUAGAGGAUAUACAGAAUAUUACAUGAGGAUCACCCAUGUUCUUCAAUGUAUAUAUGUAGAAGGCUAAGGUU [Mat - Exclusion 5 - JL Mod - D7] (Eterna round: R97, puzzle: Exclusion 5) | 286 | – | 131 | – | – | – |
| AGGGAGUGAGGAUAUACGAAAUAAAAAGAAGGAAAAAAAGAGUAGAAGGCACAUGAGGAUCACCCAUGUGAGAA [milkweed 12] (Eterna round: R96, puzzle: Exclusion 4) | – | 16.9 | – | – | – | – |
| ACCUCACAUGAGGAUCACCCAUGUCAGGAUAUCUAAUAUUGUAGCGUUCCCGACGCUAAGAGAAGGGACAUUAA [EX1 #31] (Eterna round: R97, puzzle: Exclusion 1) | 19.5 | – | 16.5 | – | – | – |
